Laboratory results as given in PMC10397247.
Values belong to the binder of their own block, whether it stands above or below them.

Legend:
O1 = target: T1, O1; test: two-hybrid library CCNG1;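 also: natural log of median RNA to DNA barcode read ratio; higher means stronger binding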
T1 chain: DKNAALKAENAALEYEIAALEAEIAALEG

4H3858-bH = target: T2, 4H3858-bH; test: two-hybrid library CCNG1;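 also: natural log of median RNA to DNA barcode read ratio; higher means stronger binding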
T2 chain: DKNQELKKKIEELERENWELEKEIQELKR

4H850-bH = target: T3, 4H850-bH; test: two-hybrid library CCNG1;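 also: natural log of median RNA to DNA barcode read ratio; higher means stronger binding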
T3 chain: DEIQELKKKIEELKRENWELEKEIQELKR

4H570-bH = target: T4, 4H570-bH; test: two-hybrid library CCNG1;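 also: natural log of median RNA to DNA barcode read ratio; higher means stronger binding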
T4 chain: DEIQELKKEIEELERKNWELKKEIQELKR

4H3974-bH = target: T5, 4H3974-bH; test: two-hybrid library CCNG1;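 also: natural log of median RNA to DNA barcode read ratio; higher means stronger binding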
T5 chain: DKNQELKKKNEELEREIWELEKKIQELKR

O10 = target: T6, O10; test: two-hybrid library CCNG1;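 also: natural log of median RNA to DNA barcode read ratio; higher means stronger binding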
T6 chain: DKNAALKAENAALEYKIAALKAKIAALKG

O13 = target: T7, O13; test: two-hybrid library CCNG1
T7 chain: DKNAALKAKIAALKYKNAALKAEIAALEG

O12 = target: T8, O12; test: two-hybrid library CCNG1
T8 chain: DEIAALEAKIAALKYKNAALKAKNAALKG

O16 = target: T9, O16; test: two-hybrid library CCNG1
T9 chain: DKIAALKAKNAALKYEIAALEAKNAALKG

O4 = target: T10, O4; test: two-hybrid library CCNG1
T10 chain: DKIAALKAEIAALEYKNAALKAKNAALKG

O3 = target: T11, O3; test: two-hybrid library CCNG1
T11 chain: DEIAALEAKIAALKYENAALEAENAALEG

O5 = target: T12, O5; test: two-hybrid library CCNG1
T12 chain: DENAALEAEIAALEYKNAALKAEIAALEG

O7 = target: T13, O7; test: two-hybrid library CCNG1
T13 chain: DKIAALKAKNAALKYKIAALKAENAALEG

O9 = target: T14, O9; test: two-hybrid library CCNG1
T14 chain: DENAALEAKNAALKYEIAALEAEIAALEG

O14 = target: T15, O14; test: two-hybrid library CCNG1
T15 chain: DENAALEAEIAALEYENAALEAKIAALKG

O8 = target: T16, O8; test: two-hybrid library CCNG1
T16 chain: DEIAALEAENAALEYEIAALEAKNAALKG

O6 = target: T17, O6; test: two-hybrid library CCNG1
T17 chain: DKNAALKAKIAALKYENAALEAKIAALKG

O15 = target: T18, O15; test: two-hybrid library CCNG1
T18 chain: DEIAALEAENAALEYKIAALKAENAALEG

O11 = target: T19, O11; test: two-hybrid library CCNG1
T19 chain: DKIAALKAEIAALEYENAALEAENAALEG

O2 = target: T20, O2; test: two-hybrid library CCNG1
T20 chain: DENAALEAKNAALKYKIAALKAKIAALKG

4H369-AA = target: T21, 4H369-AA; test: two-hybrid library CCmax; conditions: mean of both orientations
T21 chain: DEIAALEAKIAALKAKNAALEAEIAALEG

4H327-AA = target: T22, 4H327-AA; test: two-hybrid library CCmax; conditions: mean of both orientations
T22 chain: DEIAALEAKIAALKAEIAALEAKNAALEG

4H3664-AA = target: T23, 4H3664-AA; test: two-hybrid library CCmax; conditions: mean of both orientations
T23 chain: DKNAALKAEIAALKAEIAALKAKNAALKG

4H2513-AA = target: T24, 4H2513-AA; test: two-hybrid library CCmax; conditions: mean of both orientations
T24 chain: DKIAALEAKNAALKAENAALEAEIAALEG

4H2726-AA = target: T25, 4H2726-AA; test: two-hybrid library CCmax; conditions: mean of both orientations
T25 chain: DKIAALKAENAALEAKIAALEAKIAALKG

4H3922-AA = target: T26, 4H3922-AA; test: two-hybrid library CCmax; conditions: mean of both orientations
T26 chain: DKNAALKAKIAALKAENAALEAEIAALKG

4H662-AA = target: T27, 4H662-AA; test: two-hybrid library CCmax; conditions: mean of both orientations
T27 chain: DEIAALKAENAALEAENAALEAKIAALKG

4H2211-AA = target: T28, 4H2211-AA; test: two-hybrid library CCmax; conditions: mean of both orientations
T28 chain: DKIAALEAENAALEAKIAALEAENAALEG

4H2614-AA = target: T29, 4H2614-AA; test: two-hybrid library CCmax; conditions: mean of both orientations
T29 chain: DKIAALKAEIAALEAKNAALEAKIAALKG

4H629-AA = target: T30, 4H629-AA; test: two-hybrid library CCmax
T30 chain: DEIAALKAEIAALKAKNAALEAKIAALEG

4H1082-AA = target: T31, 4H1082-AA; test: two-hybrid library CCmax
T31 chain: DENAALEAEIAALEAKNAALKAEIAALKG

4H1103-AA = target: T32, 4H1103-AA; test: two-hybrid library CCmax; conditions: mean of both orientations
T32 chain: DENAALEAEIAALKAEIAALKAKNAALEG

4H2935-AA = target: T33, 4H2935-AA; test: two-hybrid library CCmax; conditions: mean of both orientations
T33 chain: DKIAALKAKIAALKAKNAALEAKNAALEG

4H1405-AA = target: T34, 4H1405-AA; test: two-hybrid library CCmax; conditions: mean of both orientations
T34 chain: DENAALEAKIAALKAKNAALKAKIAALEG

4H481-AA = target: T35, 4H481-AA; test: two-hybrid library CCmax; conditions: mean of both orientations
T35 chain: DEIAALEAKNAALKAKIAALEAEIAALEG

4H2238-AA = target: T36, 4H2238-AA; test: two-hybrid library CCmax; conditions: mean of both orientations
T36 chain: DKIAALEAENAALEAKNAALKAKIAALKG

4H4033-AA = target: T37, 4H4033-AA; test: two-hybrid library CCmax; conditions: mean of both orientations
T37 chain: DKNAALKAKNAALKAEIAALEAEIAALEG

4H2608-AA = target: T38, 4H2608-AA; test: two-hybrid library CCmax; conditions: mean of both orientations
T38 chain: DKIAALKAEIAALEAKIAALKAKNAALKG

4H2536-AA = target: T39, 4H2536-AA; test: two-hybrid library CCmax; conditions: mean of both orientations
T39 chain: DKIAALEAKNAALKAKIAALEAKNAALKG

4H1198-AA = target: T40, 4H1198-AA; test: two-hybrid library CCmax; conditions: mean of both orientations
T40 chain: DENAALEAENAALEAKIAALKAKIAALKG

4H3605-AA = target: T41, 4H3605-AA; test: two-hybrid library CCmax; conditions: mean of both orientations
T41 chain: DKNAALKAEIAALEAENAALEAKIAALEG

4H3625-AA = target: T42, 4H3625-AA; test: two-hybrid library CCmax; conditions: mean of both orientations
T42 chain: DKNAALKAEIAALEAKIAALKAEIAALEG

4H55-AA = target: T43, 4H55-AA; test: two-hybrid library CCmax; conditions: mean of both orientations
T43 chain: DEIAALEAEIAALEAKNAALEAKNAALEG

4H1350-AA = target: T44, 4H1350-AA; test: two-hybrid library CCmax; conditions: mean of both orientations
T44 chain: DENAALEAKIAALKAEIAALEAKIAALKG

4H3628-bA = target: T45, 4H3628-bA; test: two-hybrid library CCNG1
T45 chain: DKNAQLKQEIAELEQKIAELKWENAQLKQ

4H3817-bA = target: T46, 4H3817-bA; test: two-hybrid library CCNG1
T46 chain: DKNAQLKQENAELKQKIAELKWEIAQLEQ

4H1348-bA = target: T47, 4H1348-bA; test: two-hybrid library CCNG1
T47 chain: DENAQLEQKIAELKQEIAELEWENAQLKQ

4H570-bA = target: T48, 4H570-bA; test: two-hybrid library CCNG1
T48 chain: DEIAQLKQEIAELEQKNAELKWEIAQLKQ

4H1544-bA = target: T49, 4H1544-bA; test: two-hybrid library CCNG1
T49 chain: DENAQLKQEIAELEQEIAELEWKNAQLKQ

4H1899-bA = target: T50, 4H1899-bA; test: two-hybrid library CCNG1
T50 chain: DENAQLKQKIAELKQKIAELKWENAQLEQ

4H1985-bA = target: T51, 4H1985-bA; test: two-hybrid library CCNG1
T51 chain: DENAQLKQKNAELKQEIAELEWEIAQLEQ

4H1373-bA = target: T52, 4H1373-bA; test: two-hybrid library CCNG1
T52 chain: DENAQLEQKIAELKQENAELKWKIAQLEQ

4H850-bA = target: T53, 4H850-bA; test: two-hybrid library CCNG1
T53 chain: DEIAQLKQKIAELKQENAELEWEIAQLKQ

4H1710-bA = target: T54, 4H1710-bA; test: two-hybrid library CCNG1
T54 chain: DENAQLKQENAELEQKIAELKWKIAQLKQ

4H3613-bA = target: T55, 4H3613-bA; test: two-hybrid library CCNG1
T55 chain: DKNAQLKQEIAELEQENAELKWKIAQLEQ

4H1338-bA = target: T56, 4H1338-bA; test: two-hybrid library CCNG1
T56 chain: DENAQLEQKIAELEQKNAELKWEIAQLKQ

4H3858-bA = target: T57, 4H3858-bA; test: two-hybrid library CCNG1
T57 chain: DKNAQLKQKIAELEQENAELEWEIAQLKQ

4H1449-bA = target: T58, 4H1449-bA; test: two-hybrid library CCNG1
T58 chain: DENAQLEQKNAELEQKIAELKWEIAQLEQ

4H3974-bA = target: T59, 4H3974-bA; test: two-hybrid library CCNG1
T59 chain: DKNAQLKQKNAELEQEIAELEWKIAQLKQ

interaction score (O1): -0.992
interaction score (4H3858-bH): 1.05
interaction score (4H850-bH): -0.759
interaction score (4H570-bH): 1.32
interaction score (4H3974-bH): -0.677
Binder: DKNQELKKKIEELERENWELEKEIQELKR [4H3858-bH]

interaction score (O10): -1.12
interaction score (O13): -1.26
interaction score (O12): -2.35
interaction score (O16): -2.54
interaction score (O4): -2.08
interaction score (O3): -2.08
interaction score (O5): -2.09
interaction score (O7): -2.15
interaction score (O1): -2.12
interaction score (O9): -1.83
interaction score (O14): -2.4
interaction score (O8): -2.46
interaction score (O6): -2.86
interaction score (O15): -2.03
interaction score (O11): -2.38
interaction score (O2): 1.45
Binder: DKNAALKAENAALEYEIAALEAEIAALEG [O1]

interaction score (4H369-AA): -0.173
interaction score (4H327-AA): -0.938
interaction score (4H3664-AA): -1.83
interaction score (4H2513-AA): -0.261
interaction score (4H2726-AA): -0.0246
interaction score (4H3922-AA): 2.18
interaction score (4H662-AA): -0.82
interaction score (4H2211-AA): -0.726
interaction score (4H2614-AA): 0.814
interaction score (4H629-AA): -0.619
interaction score (4H1082-AA): -0.277
interaction score (4H1103-AA): -1.29
interaction score (4H2935-AA): -1.5
interaction score (4H1405-AA): -1.13
interaction score (4H481-AA): -1.09
interaction score (4H2238-AA): -1.2
interaction score (4H4033-AA): -0.637
interaction score (4H2608-AA): 1.21
interaction score (4H2536-AA): -1.58
interaction score (4H1198-AA): -0.589
interaction score (4H3605-AA): 1.35
interaction score (4H3625-AA): -0.987
interaction score (4H55-AA): -1.89
interaction score (4H1350-AA): 0.509
Binder: DENAALEAEIAALEAKNAALKAEIAALKG [4H1082-AA]

interaction score (4H3628-bA): -0.607
interaction score (4H3817-bA): -0.561
interaction score (4H1348-bA): -0.532
interaction score (4H570-bA): -0.499
interaction score (4H1544-bA): -0.0537
interaction score (4H1899-bA): -0.794
interaction score (4H1985-bA): 0.203
interaction score (4H1373-bA): -0.825
interaction score (4H850-bA): 1.4
interaction score (4H1710-bA): -1.12
interaction score (4H3613-bA): 0.511
interaction score (4H1338-bA): -0.0383
interaction score (4H3858-bA): 1.87
interaction score (4H1449-bA): -0.906
interaction score (4H3974-bA): 1.12
Binder: DENAQLEQKIAELEQKNAELKWEIAQLKQ [4H1338-bA]
